Experiment [1] has as its target feline FcRn complex (FcRn-α subunit and β-microglobulin) (feline). Nature of the experiment: SPR (Biacore), FcRn on SA chip, pH 6. For orientation: SPR reads the build-up and loss of mass on a sensor chip optically.
The target is the same in experiment [2]. Nature of the experiment: SPR (Biacore), FcRn on SA chip, pH 7.4.

B1: feline IgG1a mutant ID No. 289: S252Y, S428Y, L314K, S434Y (antibody, part only; not given: Variable domains, not shown: another chain or arm of the molecule)
constant: ASTTAPSVFPLAPSCGTTSGATVALACLVLGYFPEPVTVSWNSGALTSGVHTFPAVLQASGLYSLSSMVTVPSSRWLSDTFTCNVAHPPSNTKVDKTVRKTDHPPGPKPCDCPKCPPPEMLGGPSIFIFPPKPKDTLYISRTPEVTCLVVDLGPDDSDVQITWFVDNTQVYTAKTSPREEQFNSTYRVVSVLPILHQDWKKGKEFKCKVNSKSLPSPIERTISKAKGQPHEPQVYVLPPAQEELSRNKVSVTCLIKSFHPPDIAVEWEITGQPEPENNYRTTPPQLDSDGTYFVYSKLSVDRSHWQRGNTYTCSVYHEALHYHHTQKSLTQSPGK
Usually Kd stands for the equilibrium constant for the complex coming apart. A lower Kd goes with higher affinity. As to B1, the Kd in experiment [1] was 0.808 nM; in experiment [2], 132 nM.

B2: feline IgG1a mutant ID No. 297: S428Y, D312P, L314K, S434Y (antibody, part only; not given: Variable domains, not shown: another chain or arm of the molecule)
constant: ASTTAPSVFPLAPSCGTTSGATVALACLVLGYFPEPVTVSWNSGALTSGVHTFPAVLQASGLYSLSSMVTVPSSRWLSDTFTCNVAHPPSNTKVDKTVRKTDHPPGPKPCDCPKCPPPEMLGGPSIFIFPPKPKDTLSISRTPEVTCLVVDLGPDDSDVQITWFVDNTQVYTAKTSPREEQFNSTYRVVSVLPILHQPWKKGKEFKCKVNSKSLPSPIERTISKAKGQPHEPQVYVLPPAQEELSRNKVSVTCLIKSFHPPDIAVEWEITGQPEPENNYRTTPPQLDSDGTYFVYSKLSVDRSHWQRGNTYTCSVYHEALHYHHTQKSLTQSPGK
Take B2: the Kd in experiment [1] is 0.898 nM; in experiment [2], 82.9 nM.

B3: feline IgG1a mutant ID No. 291: S252Y, S428Y, Q311W, D312P, L314K (antibody, part only; not given: Variable domains, not shown: another chain or arm of the molecule; small tags and cut ends)
constant: ASTTAPSVFPLAPSCGTTSGATVALACLVLGYFPEPVTVSWNSGALTSGVHTFPAVLQASGLYSLSSMVTVPSSRWLSDTFTCNVAHPPSNTKVDKTVRKTDHPPGPKPCDCPKCPPPEMLGGPSIFIFPPKPKDTLYISRTPEVTCLVVDLGPDDSDVQITWFVDNTQVYTAKTSPREEQFNSTYRVVSVLPILHWPWKKGKEFKCKVNSKSLPSPIERTISKAKGQPHEPQVYVLPPAQEELSRNKVSVTCLIKSFHPPDIAVEWEITGQPEPENNYRTTPPQLDSDGTYFVYSKLSVDRSHWQRGNTYTCSVYHEALHSHHTQKSLTQSPGK
For B3, the Kd in experiment [1] came out at 39.7 nM; in experiment [2], 16700 nM.

B4: feline IgG1a mutant ID No. 296: S252Y, S428Y, Q311W, S434Y (antibody, part only; not given: Variable domains, not shown: another chain or arm of the molecule; small tags and cut ends)
constant: ASTTAPSVFPLAPSCGTTSGATVALACLVLGYFPEPVTVSWNSGALTSGVHTFPAVLQASGLYSLSSMVTVPSSRWLSDTFTCNVAHPPSNTKVDKTVRKTDHPPGPKPCDCPKCPPPEMLGGPSIFIFPPKPKDTLYISRTPEVTCLVVDLGPDDSDVQITWFVDNTQVYTAKTSPREEQFNSTYRVVSVLPILHWDWLKGKEFKCKVNSKSLPSPIERTISKAKGQPHEPQVYVLPPAQEELSRNKVSVTCLIKSFHPPDIAVEWEITGQPEPENNYRTTPPQLDSDGTYFVYSKLSVDRSHWQRGNTYTCSVYHEALHYHHTQKSLTQSPGK
For B4, the results for the Kd in experiment [1] and in experiment [2] were 0.544 nM and 1480 nM, respectively.

B5: feline IgG1a mutant ID No. 293: S252Y, S428Y, Q311W, D312P, S434Y (antibody, part only; not given: Variable domains, not shown: another chain or arm of the molecule; small tags and cut ends)
constant: ASTTAPSVFPLAPSCGTTSGATVALACLVLGYFPEPVTVSWNSGALTSGVHTFPAVLQASGLYSLSSMVTVPSSRWLSDTFTCNVAHPPSNTKVDKTVRKTDHPPGPKPCDCPKCPPPEMLGGPSIFIFPPKPKDTLYISRTPEVTCLVVDLGPDDSDVQITWFVDNTQVYTAKTSPREEQFNSTYRVVSVLPILHWPWLKGKEFKCKVNSKSLPSPIERTISKAKGQPHEPQVYVLPPAQEELSRNKVSVTCLIKSFHPPDIAVEWEITGQPEPENNYRTTPPQLDSDGTYFVYSKLSVDRSHWQRGNTYTCSVYHEALHYHHTQKSLTQSPGK
On to B5, for which the figures for the Kd in experiment [1] and in experiment [2] were 1.07 nM and 2930 nM, respectively.

B6: feline IgG1a mutant ID No. 292: S252Y, S428Y, Q311W, D312P, L314K, S434Y (antibody, part only; not given: variable domains and light chain, not shown: another chain or arm of the molecule; small tags and cut ends)
constant: ASTTAPSVFPLAPSCGTTSGATVALACLVLGYFPEPVTVSWNSGALTSGVHTFPAVLQASGLYSLSSMVTVPSSRWLSDTFTCNVAHPPSNTKVDKTVRKTDHPPGPKPCDCPKCPPPEMLGGPSIFIFPPKPKDTLYISRTPEVTCLVVDLGPDDSDVQITWFVDNTQVYTAKTSPREEQFNSTYRVVSVLPILHWPWKKGKEFKCKVNSKSLPSPIERTISKAKGQPHEPQVYVLPPAQEELSRNKVSVTCLIKSFHPPDIAVEWEITGQPEPENNYRTTPPQLDSDGTYFVYSKLSVDRSHWQRGNTYTCSVYHEALHYHHTQKSLTQSPGK
Consider B6, for which the Kd in experiment [1] was determined as 4.01 nM; in experiment [2] it was 2720 nM.

B7: feline IgG1a mutant ID No. 295: S252Y, S428Y, Q311W, L314K, S434Y (antibody, part only; not given: Variable domains, not shown: another chain or arm of the molecule; small tags and cut ends)
constant: ASTTAPSVFPLAPSCGTTSGATVALACLVLGYFPEPVTVSWNSGALTSGVHTFPAVLQASGLYSLSSMVTVPSSRWLSDTFTCNVAHPPSNTKVDKTVRKTDHPPGPKPCDCPKCPPPEMLGGPSIFIFPPKPKDTLYISRTPEVTCLVVDLGPDDSDVQITWFVDNTQVYTAKTSPREEQFNSTYRVVSVLPILHWDWKKGKEFKCKVNSKSLPSPIERTISKAKGQPHEPQVYVLPPAQEELSRNKVSVTCLIKSFHPPDIAVEWEITGQPEPENNYRTTPPQLDSDGTYFVYSKLSVDRSHWQRGNTYTCSVYHEALHYHHTQKSLTQSPGK
Regarding B7, the Kd was determined as 0.675 nM in experiment [1] and 201 nM in experiment [2].

B8: feline IgG1a mutant ID No. 299: S428Y, Q311W, D312P, L314K, S434Y (antibody, part only; not given: variable domains and light chain, not shown: another chain or arm of the molecule)
constant: ASTTAPSVFPLAPSCGTTSGATVALACLVLGYFPEPVTVSWNSGALTSGVHTFPAVLQASGLYSLSSMVTVPSSRWLSDTFTCNVAHPPSNTKVDKTVRKTDHPPGPKPCDCPKCPPPEMLGGPSIFIFPPKPKDTLSISRTPEVTCLVVDLGPDDSDVQITWFVDNTQVYTAKTSPREEQFNSTYRVVSVLPILHWPWKKGKEFKCKVNSKSLPSPIERTISKAKGQPHEPQVYVLPPAQEELSRNKVSVTCLIKSFHPPDIAVEWEITGQPEPENNYRTTPPQLDSDGTYFVYSKLSVDRSHWQRGNTYTCSVYHEALHYHHTQKSLTQSPGK
In the case of B8, the results for the Kd in experiment [1] and in experiment [2] were 1.17 nM and 79.6 nM, respectively.

B9: feline IgG1a mutant ID No. 290: S252Y, S428Y, Q311W, D312P (antibody, part only; not given: Variable domains, not shown: another chain or arm of the molecule; small tags and cut ends)
constant: ASTTAPSVFPLAPSCGTTSGATVALACLVLGYFPEPVTVSWNSGALTSGVHTFPAVLQASGLYSLSSMVTVPSSRWLSDTFTCNVAHPPSNTKVDKTVRKTDHPPGPKPCDCPKCPPPEMLGGPSIFIFPPKPKDTLYISRTPEVTCLVVDLGPDDSDVQITWFVDNTQVYTAKTSPREEQFNSTYRVVSVLPILHWPWLKGKEFKCKVNSKSLPSPIERTISKAKGQPHEPQVYVLPPAQEELSRNKVSVTCLIKSFHPPDIAVEWEITGQPEPENNYRTTPPQLDSDGTYFVYSKLSVDRSHWQRGNTYTCSVYHEALHSHHTQKSLTQSPGK
Turning to B9, the Kd was found to be 3.08 nM in experiment [1] and 254 nM in experiment [2].

B10: feline IgG1a mutant ID No. 294: S252Y, S428Y, Q311W, L314K (antibody, part only; not given: variable domains and light chain, not shown: another chain or arm of the molecule; small tags and cut ends)
constant: ASTTAPSVFPLAPSCGTTSGATVALACLVLGYFPEPVTVSWNSGALTSGVHTFPAVLQASGLYSLSSMVTVPSSRWLSDTFTCNVAHPPSNTKVDKTVRKTDHPPGPKPCDCPKCPPPEMLGGPSIFIFPPKPKDTLYISRTPEVTCLVVDLGPDDSDVQITWFVDNTQVYTAKTSPREEQFNSTYRVVSVLPILHWDWKKGKEFKCKVNSKSLPSPIERTISKAKGQPHEPQVYVLPPAQEELSRNKVSVTCLIKSFHPPDIAVEWEITGQPEPENNYRTTPPQLDSDGTYFVYSKLSVDRSHWQRGNTYTCSVYHEALHSHHTQKSLTQSPGK
Take B10: the dissociation constant (Kd) in experiment [1] worked out at 0.692 nM; in experiment [2], 12.8 nM.

B11: feline IgG1a mutant ID No. 300: S428Y, Q311W, D312P, S434Y (antibody, part only; not given: Variable domains, not shown: another chain or arm of the molecule)
constant: ASTTAPSVFPLAPSCGTTSGATVALACLVLGYFPEPVTVSWNSGALTSGVHTFPAVLQASGLYSLSSMVTVPSSRWLSDTFTCNVAHPPSNTKVDKTVRKTDHPPGPKPCDCPKCPPPEMLGGPSIFIFPPKPKDTLSISRTPEVTCLVVDLGPDDSDVQITWFVDNTQVYTAKTSPREEQFNSTYRVVSVLPILHWPWLKGKEFKCKVNSKSLPSPIERTISKAKGQPHEPQVYVLPPAQEELSRNKVSVTCLIKSFHPPDIAVEWEITGQPEPENNYRTTPPQLDSDGTYFVYSKLSVDRSHWQRGNTYTCSVYHEALHYHHTQKSLTQSPGK
On to B11, for which the equilibrium dissociation constant (Kd) in experiment [1] was found to be 0.235 nM; in experiment [2], 182 nM.

These data come from US20240400708A1.
